Ratio to parent data for 4 variants are collected here from article PMC5524322, “Species A rotavirus NSP3 acquires its translation inhibitory function prior to stable dimer formation” (PLoS ONE, 2017).

To fix the notation:
B1: wild type NSP3 (non-structural protein 3) of simian species A rotavirus strain RRV [simian rotavirus A strain RRV] / itself (parent complex)
chain: MESTQQMASSIINSSFEAAVVAATSTLELMGIQYDYNEVYTRVKSKFDLVMDDSGVKNNLIGKAITIDQALNGKFSSAIRNRNWMTDSRTVAKLDEDVNKLRIMLSSKGIDQKMRVLNACFSVKRIPGKSSSIVKCTRLMKDKLERGEVEVDDSFVEEKMEVDTIDWKSRYEQLEKRFESLKHRVNEKYNHWVLKARKVNENMNSLQNVISQQQAHINELQMYNNKLERDLQSKIGSVVSSIEWYLRSMELSDDVKSDIEQQLNSIDQLNPVNAIDDFESILRNLISDYDRLFIMFKGLLQQCNYTYTYE

In the assay the parent is B1. Briefly: non-dissociating Western blot (WB-ND) densitometry; parent: 1; read off a plot. In general terms: A western blot detects proteins with antibodies after separation by electrophoresis.
On to chain 1 K168E, for which the ratio to parent was approximately 0.32.

Consider chain 1 Y189A, for which the ratio to parent was approximately 1.8. Regarding chain 1 R184E, chain 1 K188E, the ratio to parent was approximately 0.13. Take chain 1 R170E: the ratio to parent is approximately 0.17.
